This is an account of results in patent US20240084003A1 (SIMCERE ZAIMING PHARMACEUTICAL, published 2024).

In assay [1] the target is T1, human CD22-ECD-His protein (human, UniProt P20273 20-687).
T1 construct: Made in house in HEK293E; also called hCD22-ECD-His; recombinant human CD22-ECD His protein; not shown: His tag
T1 sequence: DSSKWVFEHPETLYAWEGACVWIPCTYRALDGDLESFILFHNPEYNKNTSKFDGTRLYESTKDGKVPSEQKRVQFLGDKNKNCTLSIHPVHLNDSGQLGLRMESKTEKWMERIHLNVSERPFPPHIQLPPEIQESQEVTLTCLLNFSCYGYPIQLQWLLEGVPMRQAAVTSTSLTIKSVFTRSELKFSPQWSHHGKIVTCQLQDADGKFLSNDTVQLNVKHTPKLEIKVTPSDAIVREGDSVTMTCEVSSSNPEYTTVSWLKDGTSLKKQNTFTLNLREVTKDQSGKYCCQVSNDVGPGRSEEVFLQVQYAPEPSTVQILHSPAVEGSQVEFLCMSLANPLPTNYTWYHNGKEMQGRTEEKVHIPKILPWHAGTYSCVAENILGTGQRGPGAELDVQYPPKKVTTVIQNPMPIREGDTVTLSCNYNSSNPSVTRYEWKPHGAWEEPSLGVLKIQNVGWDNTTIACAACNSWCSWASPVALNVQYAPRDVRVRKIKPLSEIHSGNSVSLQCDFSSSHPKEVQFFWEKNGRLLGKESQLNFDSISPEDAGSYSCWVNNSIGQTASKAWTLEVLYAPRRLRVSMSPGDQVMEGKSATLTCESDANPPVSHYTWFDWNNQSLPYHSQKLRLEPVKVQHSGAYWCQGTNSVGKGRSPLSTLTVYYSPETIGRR
The assay is described as follows: ELISA, Ab 0.001 nM. In outline: (§1)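 Coat: CD22-ECD-His 2 μg/mL PBS, 4 °C o/n. Block PBS/2% BSA 2 h RT. Ab 2 h 37 °C; HRP 2° 2 h 37 °C; TMB 30 min RT, 1.0 N HCl stop.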

For assay [2], the target named is T1, human CD22-ECD-His protein. The assay is described as follows: ELISA, Ab 0.00001 nM. The method in brief:
as §1

Assay [3] addresses T1, human CD22-ECD-His protein. Description: ELISA, Ab 100.00 nM. In outline: as §1
In assay [4] the target is T1, human CD22-ECD-His protein. The assay is described as follows: ELISA, human CD22-ECD-His coated. The method in brief: as §1
The target in assay [5] is T2, monkey CD22 on HEK293T-monkey CD22 cells (monkey).
T2 construct: full-length entry expressed on stably transfected HEK293T cells
T2 chain: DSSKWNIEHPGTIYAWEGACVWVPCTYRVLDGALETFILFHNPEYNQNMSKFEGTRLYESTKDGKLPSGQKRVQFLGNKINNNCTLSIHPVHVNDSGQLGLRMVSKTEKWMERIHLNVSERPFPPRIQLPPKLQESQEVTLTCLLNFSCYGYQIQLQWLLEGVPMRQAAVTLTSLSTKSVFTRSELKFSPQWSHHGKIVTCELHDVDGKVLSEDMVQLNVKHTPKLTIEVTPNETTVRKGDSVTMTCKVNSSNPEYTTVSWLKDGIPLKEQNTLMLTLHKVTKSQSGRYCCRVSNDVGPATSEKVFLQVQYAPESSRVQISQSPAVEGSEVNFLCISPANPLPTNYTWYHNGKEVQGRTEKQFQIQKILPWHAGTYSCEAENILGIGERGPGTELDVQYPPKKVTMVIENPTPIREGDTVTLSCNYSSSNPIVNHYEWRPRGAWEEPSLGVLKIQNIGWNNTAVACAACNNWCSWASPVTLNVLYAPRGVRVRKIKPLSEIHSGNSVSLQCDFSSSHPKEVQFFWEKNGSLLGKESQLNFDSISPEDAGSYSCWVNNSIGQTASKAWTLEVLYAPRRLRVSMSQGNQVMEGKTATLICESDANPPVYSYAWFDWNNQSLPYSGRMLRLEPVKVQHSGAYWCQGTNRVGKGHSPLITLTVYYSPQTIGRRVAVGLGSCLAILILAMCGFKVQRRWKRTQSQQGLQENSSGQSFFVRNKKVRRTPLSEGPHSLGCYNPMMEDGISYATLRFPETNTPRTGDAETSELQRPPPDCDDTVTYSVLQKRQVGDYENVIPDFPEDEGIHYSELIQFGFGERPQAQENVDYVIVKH
Description: FACS, HEK293T-monkey CD22 cells. As to the method: For suspension cell Raji, the medium supernatant was directly centrifuged and discarded, and the cell pellet was washed 2 times with PBS. After counting the cells in the previous step, the cell pellet was resuspended with [PBS+2% (w/w) BSA] blocking solution to 2×10⁶ cells/ml, and added to a 96-well FACS reaction plate at 50 μl/well, and then the chimeric antibody test sample was added at 50 μl/well, and incubated on ice for 2 hours. The mixture was centrifuged and washed 3 times with PBS buffer, Alexa Flour 488-labeled secondary antibody (purchased from Invitrogen, catalog number: A-11013) was added at 50 μl/well, and incubated on ice for 1 hour. The obtained mixture was centrifuged and washed 5 times with PBS, and FACS (FACS Canto™, purchased from BD Company) was used for detection and result analysis. Data analysis was performed by software (CellQuest) to obtain the mean fluorescence density (MFI)of the cells. And then software (GraphPad Prism8) was used for analysis, data fitting, and EC50 value calculation. […] The same method was used to detect the binding of the chimeric antibodies to endogenous CD22-negative cell MoLT4 cells (purchased from ATCC, CRL-1582) and CHO-K1 cells.
HEK293T-monkey CD22 cells were subjected to FACS detection and data analysis according to the method in Example 5.2.

B1: F1.105.11 (antibody, human IgG1, kappa, V domains shown)
VH: EVQLQQSGPVLVKPGASVKMSCKASGYTFSDYFMNWVKQSHGKSLEWIGIINSYSGGTSYNQKFKGKATLTVDKSSSTAYMELNSLTSEDSAVYYCARWMDYWGQGTSVTVSS
VL: DVQITQSPSYLAASPGETITINCRTSESISKHLAWYQEKPGKTNKLLIYSGSTLQSGIPSRFSGSGSGTDFTLTISSLEPEDFAMYYCQQHNEYPWTFGGGTKLEIKR
notes: Human-murine chimeric IgG1, kappa
B1: the figures for the OD450 in assay [1], in assay [2] and in assay [3] were 0.53 OD450, 0.08 OD450 and 2.79 OD450, respectively. Further, the “EC50 (read off the curve)” value in assay [4] was ~0.04 nM.

B2: F2.180.16 (antibody, human IgG1, lambda, V domains shown)
VH: EVKLVESGGGLVLPGGSLKISCAASGFTFSDYYMYWIRQTPDKRLEWVAYISNTGYSTFYPDSVKGRFTVSRDNAKNTLYLQMSRLQSEDTAMYYCARHGILYAMDYWGQGTSVTVSS
VL: QPVLTQSSSASFSLGASAKLTCTLSSQYSTYTIGWYQQQPLKPPKYVMELKHDGSRHTGDGIPDRFSGSSSGADRYLSISNIQPEDEATYICGVGDTIKEQFMYVFGGGTKVTVLG
notes: Human-murine chimeric IgG1, lambda
B2: the results for the OD450 in assay [1], in assay [2] and in assay [3] were 0.61 OD450, 0.21 OD450 and 2.61 OD450, respectively.

B3: HA22-hIgG1 (antibody, V domains shown)
VH: EVQLVESGGGLVKPGGSLKLSCAASGFAFSIYDMSWVRQTPEKCLEWVAYISSGGGTTYYPDTVKGRFTISRDNAKNTLYLQMSSLKSEDTAMYYCARHSGYGTHWGVLFAYWGQGTLVTVSA
VL: DIQMTQTTSSLSASLGDRVTISCRASQDISNYLNWYQQKPDGTVKLLIYYTSILHSGVPSRFSGSGSGTDYSLTISNLEQEDFATYFCQQGNTLPWTFGCGTKLEIKR
For B3, the results for the OD450 in assay [1], in assay [2] and in assay [3] were 0.89 OD450, 0.19 OD450 and 2.65 OD450, respectively. Further, in assay [4], the “EC50 (read off the curve)” value is ~0.02 nM.

B4: F1.120.15 (antibody, human IgG1, kappa, V domains shown)
VH: QVQLQQSGPELVKPGASVKISCKASGNAFSNSWMNWVKQRPGKGLEWIGRVYSEDGDTQYNGKFRDKATLTADRSTSTAYMQLSSLTSEDSAVYFCARWLIYYGTYGAMDYWGQGTSVTVSS
VL: DIQMTQTTSSLSASLGDRVTISCRASQDINNYLNWYHQKPDGTVKLLIYFTSRPYSGVPSRFSGSGSGTDYSLTISNLEQEDIATYFCQQGNTLPWTFGGGTKLEIKR
notes: as for B1
Take B4: the figures for the OD450 in assay [1], in assay [2] and in assay [3] were 1.21 OD450, 0.12 OD450 and 2.89 OD450, respectively. Further, the “EC50 (read off the curve)” value in assay [4] is ~0.02 nM.

B5: F1.62.10 (antibody, human IgG1, kappa, V domains shown)
VH: QVQLQQSGPELVKPGASVKISCKASGYEFSSIWMNWVKQRPGEGLEWIGRIFPGDGEINYNEKFKGKATLTADRSSTTAYMQLSSLTSEDSAVYFCAGWRIYYGTYGAMDYWGQGTSVTVSS
VL: DIQMTQITSSLSASLGDRVTISCRASQDIGNYLNWYQQKPDGTVKLLIYYTSRLHSGVPSRFSGSGSRTDYSLTISNLQQEDIATYFCQQGNTLPWTFGGGTKLEIKR
notes: human-murine chimeric IgG1 kappa
For B5, in assay [5], the EC50 was 41.1 nM and the “Maximum mean fluorescence intensity” value stood at 4330 MFI.

B6: HA22-hIgG1 (antibody, V domains shown)
VH: EVQLVESGGGLVKPGGSLKLSCAASGFAFSIYDMSWVRQTPEKCLEWVAYISSGGGTTYYPDTVKGRFTISRDNAKNTLYLQMSSLKSEDTAMYYCARHSGYGTHWGVLFAYWGQGTLVTVSA
VL: DIQMTQTTSSLSASLGDRVTISCRASQDISNYLNWYQQKPDGTVKLLIYYTSILHSGVPSRFSGSGSGTDYSLTISNLEQEDFATYFCQQGNTLPWTFGCGTKLEIKR
Turning to B6, in assay [5], the EC50 was 0.91 nM and the “Maximum mean fluorescence intensity” value was determined as 17100 MFI.

B7: F1.216.2 (antibody, human IgG1, kappa, V domains shown)
VH: QVQLQQSGPEVVRPGASVKISCKASGYAFSSSWMNWMKQRPGKALEWIGRIYPGDGDTNYSGEFKVKATLTADKSSSTAYMQLSSLTSEDSAVYFCAREGSYYSNPWYFDYWGQGTTLTVSS
VL: DVLVTQTPLSLPVSLGDQASISCRSSQSIVQSNGDTYLEWYLQKPGQSPKLLIYKVSNRFSGVPDRFSGSGSGTDFTLKISRVEAEDLGVYYCFQGSHVPFTFGSGTKLEIKR
notes: as for B1
As for B7, the OD450 in assay [1] was determined as 1.71 OD450; in assay [2], 0.2 OD450; in assay [3] it was 2.69 OD450. Further, the “EC50 (read off the curve)” value in assay [4] was ~0.006 nM.

B8: F1.200.11 (antibody, human IgG1, kappa, V domains shown)
VH: QNQLVQSGPELKKPGETVKISCKASGYTFTTAGMQWVQKMPGKGFKWIGWINTLSGEPKYAEDFKGRFAFSLETSATTAYLQISNLKNEDTATYFCARAYYSNLYWYFDVWGTGTTVTVSS
VL: DIVMTQSQKFMSTTVGDRVTITCKASQNVVTAVAWYQQKPGQSPKVLIYSASNRYSGVPDRFTGSGSGTDFTLTISNMHSEDLANYFCHQYSSYPFTFGSGTKLEIKR
notes: as for B1
For B8, the OD450 in assay [1] was determined as 0.85 OD450; in assay [2], 0.33 OD450; in assay [3] it was 2.34 OD450. Besides, the “EC50 (read off the curve)” value in assay [4] is ~0.03 nM.

B9: F1.17.1 (antibody, human IgG1, kappa, V domains shown)
VH: QVQLKESGPGLVAPSQSLSITCTVSGFSLSRYTVHWVRQPPGKGLEWLGMIWGGGSTDYNSALKSRLSISKDNSKSQVFLKMNSLQTDDTAMYYCARPHDFDAGGFAYWGQGTLVTVSA
VL: QIVLTQSPAILSTSPGEKVTMTCSASSRVNYMYWYQQKPGSSPRLLIYDTSNLASGVPVRFSGSGSGTSYSLTISRMEAEDAATYYCQQWTSYPLTFGAGTKLELKR
notes: as for B1
Turning to B9, the OD450 in assay [1] was 0.75 OD450; in assay [2], 0.11 OD450; in assay [3], 2.86 OD450. For the same molecule, the “EC50 (read off the curve)” value in assay [4] is ~0.03 nM.

B10: F1.224.1 (antibody, human IgG1, kappa, V domains shown)
VH: EVLLHQSGPELVKPGASVKISCKASGYTFTDFNMDWVRQRHGQSLEWIGDVNPNNGGTIYNQKFKGKATLTVDKSSSTVYMDLRSLTSDDTAVYYCVRLGTSDYGEAWFISWGQGTVVTVSA
VL: DIVLTQSPASLAVSLGQRATISCRASQSVSTPRYSFMHWYQQKPGQPPKLLIKYASNLESGFPARFTGSGSGTDFTLNIHPVEEEDTAAYYCQQSWAIPWTFGGGTKLEIKR
notes: as for B1
As for B10, the OD450 in assay [1] was 1.08 OD450; in assay [2], 0.17 OD450; in assay [3], 3.12 OD450. For the same molecule, the “EC50 (read off the curve)” value in assay [4] is ~0.02 nM.
